{
  "source": "patent US6383734B1",
  "about": "“Method to determine inhibition of PAK3 activation of Raf-1” (Advanced Research and Technology Institute, Inc., priority 1998, dated 2002)",
  "molecules": {"B1": {"name": "Immunoprecipitated PAK3: full-length PAK3 immunoprecipitated directly from rat spleen lysates with an anti-PAK3 antibody (protein)", "chain": "SDNGELEDKPPAPPVRMSSTIFSTGGKDPLSANHSLKPLPSVPEEKKPRNKIISIFSSTEKGSKKKEKERPEISPPSDFEHTIHVGFDAVTGEFTGMPEQWARLLQTSNITKLEQKKNPQAVLDVLKFYDSNTVKQKYLSFTPPEKDGFPSGTPALNTKGSETSAVVTEEDDDDEDAAPPVIAPRPDHTKSIYTRSVIDPIPAPVGDSNVDSGAKSSDKQKKKAKMTDEEIMEKLRTIVSIGDPKKKYTRYEKIGQGASGTVFTATDVALGQEVAIKQINLQKQPKKELIINEILVMKELKNPNIVNFLDSYLVGDELFVVMEYLAGGSLTDVVTETCMDEAQIAAVCRECLQALEFLHANQVIHRDIKSDNVLLGMEGSVKLTDFGFCAQITPEQSKRSTMVGTPYWMAPEVVTRKAYGPKVDIWSLGIMAIEMVEGEPPYLNENPLRALYLIATNGTPELQNPEKLSPIFRDFLNRCLEMDVEKRGSAKELLQHPFLKLAKPLSSLTPLILAAKEAMKSNR"}},
  "test_system": "Raf-1 serine 338/339",
  "assay": "In vitro kinase assay with Raf-1 peptide and Raf-CR3 as substrates",
  "type": "biochemical, human",
  "settings": "PAK3 immunoprecipitated from rat spleen lysates, FIG. 4b",
  "method": "B. Kinase assays. Kinase samples were assessed for their ability to phosphorylate 500 μM Raf-1 peptide (33,[…]345) (SEQ ID NO:4) in the presence of 500 μMATP (containing 2 μCi [γ-^32P]-ATP at 30° C. for 10 minutes. Incubations were analyzed by P-81 phosphocellulose paper assay. Phosphorylation of serine 338/339 in Raf-CR3 was determined by similar incubations containing 1 μg of substrate at 30° C. for 30-60 minutes. Proteins were resolved by SDS-PAGE, transferred to Immobilon-P and the dried, Ponceau S-stained membranes were autoradiographed. Raf-1 kinase activity was measured by the coupled assay method using GST-Mek 1, GST-Erk1 and myelin basic protein by the method of D. Stokoe et al., Science, 264, 1463 (1994).\nD. Expression of recombinant Raf-CR3 in E. Coli. DNA sequences encoding residues 307-648 of human c-Raf-1 were amplified by polymerase chain reaction using the 5′-primer […] (SEQ ID NO:5) and the 3′-primer […] (SEQ ID NO:6). The amplified DNA was purified, digested with EcoRI and XhoI and cloned into the Stratagene pCAL-n vector. The entire Raf-CR3 coding sequence was verified by termination reaction PCR DNA sequencing. Raf-CR3 D338E339 and A338A339 substitution mutants were generated by site-directed mutagenesis using the Promega Altered SitesTM in vitro mutagenesis system. Raf-CR3-calmodulin binding protein fusions were expressed in E. coli strain BL21 (pLysS). […]",
  "data": [
    {"molecule": "B1", "values": [
      {"measurement": "phosphate incorporated into wild type Raf-CR3 versus Raf-CR3[D338E339] or Raf-CR3[A338A339] mutants", "result": 4, "unit": "fold"}
    ]}
  ]
}
